The values below come from patent US9441223.

The target of this series is TDP-43 (Homo sapiens) (UniProt Q13148). Conditions: reanalysis of public CLIP-seq; healthy brain; ratio rises to 2.0 in FTLD.
Chain of TDP-43 (Homo sapiens) (Q13148 whole entry): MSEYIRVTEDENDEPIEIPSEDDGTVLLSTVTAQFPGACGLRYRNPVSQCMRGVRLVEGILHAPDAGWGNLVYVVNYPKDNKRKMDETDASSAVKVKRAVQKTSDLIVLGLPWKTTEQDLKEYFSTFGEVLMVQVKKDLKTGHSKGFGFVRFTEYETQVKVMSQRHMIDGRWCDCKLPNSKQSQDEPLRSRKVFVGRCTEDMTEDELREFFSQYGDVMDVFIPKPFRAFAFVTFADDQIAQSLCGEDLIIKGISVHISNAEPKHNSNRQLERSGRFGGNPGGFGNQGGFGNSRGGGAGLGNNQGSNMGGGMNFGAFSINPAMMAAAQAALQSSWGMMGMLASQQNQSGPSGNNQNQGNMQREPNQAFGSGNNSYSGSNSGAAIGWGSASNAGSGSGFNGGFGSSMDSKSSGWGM

In the case of UGUGU [UGUGU pentamer motif], the binding signal (RefGene/repeat motif enrichment ratio) came out at 1.3.
